From patent US20170002075A1 (AbbVie / Abbott, published 2017)

B1: 4E5-recombinant (antibody, V domains shown)
VH: QVQLQQSGAELVRPGTSVKVSCKASGYAFNNYLIEWIKQRPGQGLEWIGVINPGSGGTNHNEKFKVKATLTADKSSSTAYIQLSSLTSDDSAVYFCARSAGTARARFAYWGQGTLVTVSA
VL: DIQMTQSPSSLSASLGERVSLTCRASQDIGSSLNWLQQEPDGTIKRLIYATSSLDSGVPKRFSGSRSGSDYSLTISSLESEDFVDYYCLQYASFPFTFGSGTKLEIKR
notes: also called recombinant chimeric anti-human RAGE monoclonal antibody 4E5 (human IgG1/kappa)
B2: C-terminal shortened husRAGE fusion protein (1-130-sRAGE-Fc) (Fc fusion)
chain: AQNITARIGEPLVLKCKGAPKKPPQRLEWKLNTGRTEAWKVLSPQGGGPWDSVARVLPNGSLFLPAVGIQDEGIFRCQAMNRNGKETKSNYRVRVYQIPGKPEIVDSA
notes: also called husRAGE-1-130-Fc; RAGE-Fc mutant protein consisting of the v-domain only; not shown: C-terminal part of a human IgG heavy chain ('hIgG lambda hc 257-Stop')

Legend:
[1] = target: T1, recombinant human RAGE (plate coat of the competition ELISA of Example 1.4); assay: competition ELISA on plates coated with recombinant human RAGE (2 µg/mL); competitor: biotinylated hybridoma-derived 4E5 (4E5-biotin), streptavidin-HRP, OD 450 nm; the unit comes from the axis 'Log MAbs (M)'
T1 construct: not shown: The carrier of the coated preparation, if it had one
Experimental: The purified chimeric anti-human RAGE monoclonal antibodies were tested for their ability to bind human RAGE in a competition ELISA. […] Equal volumes (50 μL) of each recombinant chimeric anti-human RAGE monoclonal antibodies or hybridoma-derived anti-human RAGE monoclonal antibodies and each corresponding biotinylated hybridoma-derived anti-RAGE mAbs were mixed. 50 μL of this mixture was then added to ELISA plates pre-coated with recombinant human RAGE at 2 μg/mL and incubated for 1.5 hours at room temperature. Wells were washed three times with PBS+0.05% Tween-20. Streptavidin HRP (1 mg/mL) was diluted 1:16000 in PBST+10% Superblock; 50 µL/well was added and the plates incubated for 1 hour at room temperature. Plates were washed 3 times with PBS+0.05% Tween-20. 50 µL of TMB solution (Sigma, St Louis, Mo.) was added to each well and incubated for 10 minutes at room temperature. The reaction was stopped by addition of IN sulphuric acid. Plates were read spectrophotometrically at a wavelength of 450 nm.

[2] = target: T2, biotinylated Aβ1-42 globulomer (UniProt P05067 672-713, 1/5 of the Aβ1-42 peptide used was Biotinyl-Amyloid β-Protein (1-42)); assay: ALPHA screen: RAGE-Fc titrated on protein A acceptor beads, biotinylated Aβ globulomer on streptavidin donor beads
T2 construct: domain: Amyloid β-Protein (1-42); Oligomer of Aβ1-42; Concentrations are calculated as Aβ1-42 monomer; also called Aβ-globulomer; amyloid Aβ-globulomers

Row | Binder | EC50 [1] [nM] | binding result [2]
1 | B1 | 66.2 | 
2 | B2 |  | no binding (tested: about 30 ng/µl)
